Key:
latent PDGF-DD = target: T1, latent PDGF-DD (Homo sapiens, UniProt Q9GZP0); assay: Cotransfection assay in COS-1 cells: protease plus full-length PDGF-D; type: cell-based; settings: COS-1 conditioned medium, immunoblot
T1 construct: cotransfected with full-length PDGF-C (Li et al, 2000), full-length PDGF-D (Bergsten et al, 2001); expressed in transfected cells; host or cells: COS-1 cells
From the text: (§1) A cotransfection assay was established to identify serine proteases able to cleave and activate latent PDGF-CC. Expression plasmids encoding the relevant enzymes and full-length PDGF-C were cotransfected into COS-1 cells, and aliquots of the conditioned media from the transfectants were subjected to SDS-PAGE and immunoblotting using antibodies to the growth factor domain of PDGF-C. […] As a specificity control, the ability of tPA and NT to use full-length PDGF-DD as the substrate in the cotransfection assay was analysed. […] One difference in the latter results, as compared with the results from the cotransfection assay, was that purified tPA generated a second intermediate species of 32 kDa using latent PDGF-CC as the substrate. […]
To test the endogenous expression of PDGF-CC, subconfluent AG1523 cells and primary fibroblast cultures were cultured in serum-free DMEM overnight. […] In the case of the primary cultures, total protein concentration was measured and normalized (Bradford, 1976). […] PDGF-C and PDGF-D were detected by immunoblotting using affinity-purified polyclonal rabbit antibodies against PDGF-C (Li et al, 2000) and PDGF-D (Bergsten et al, 2001), respectively. The His6-tagged proteins were detected using an anti-His monoclonal antibody (C-terminal, Invitrogen). tPA was detected using sheep polyclonal antibodies against human tPA (ab9030, Abcam).

latent PDGF-CC = target: T2, latent PDGF-CC (Homo sapiens, UniProt Q9NRA1); assay: Cotransfection assay in COS-1 cells: protease plus full-length PDGF-C; type: cell-based; settings: COS-1 conditioned medium, immunoblot, 22 kDa species under reducing conditions
T2 construct: cotransfected with full-length PDGF-C (Li et al, 2000), full-length PDGF-D (Bergsten et al, 2001); expressed in transfected cells; host or cells: COS-1 cells
From the text: as §1, with “substrate. It is possible that this intermediate is the result of digestion by plasmin contamination in the tPA preparation, since the size of the fragment is similar to that of plasmincleaved PDGF-CC previously reported (Li et al, 2000).” for “substrate.”
To test the endogenous expression of PDGF-CC, subconfluent AG1523 cells and primary fibroblast cultures were cultured in serum-free DMEM overnight. […] In the case of the primary cultures, total protein concentration was measured and normalized (Bradford, 1976). […]

T2 sequence (Q9NRA1 23-345): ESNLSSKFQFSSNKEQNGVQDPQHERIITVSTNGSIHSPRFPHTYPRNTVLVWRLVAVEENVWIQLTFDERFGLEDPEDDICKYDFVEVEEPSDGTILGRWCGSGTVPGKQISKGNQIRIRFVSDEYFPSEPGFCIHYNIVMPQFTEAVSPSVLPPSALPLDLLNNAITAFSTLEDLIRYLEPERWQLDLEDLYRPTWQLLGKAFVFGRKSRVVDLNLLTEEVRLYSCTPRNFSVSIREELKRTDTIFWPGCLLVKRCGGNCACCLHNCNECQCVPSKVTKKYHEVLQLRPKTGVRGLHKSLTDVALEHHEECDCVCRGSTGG

B1: neurotrypsin: human neurotrypsin, trypsin-like serine protease cloned from AG1523 cells (protein)
chain: FDSVLNDSLHHSHRHSPPAGPHYPYYLPTQQRPPRTRPPPPLPRFPRPPRALPAQRPHALQAGHTPRPHPWGCPAGEPWVSVTDFGAPCLRWAEVPPFLERSPPASWAQLRGQRHNFCRSPDGAGRPWCFYGDARGKVDWGYCDCRHGSVRLRGGKNEFEGTVEVYASGVWGTVCSSHWDDSDASVICHQLQLGGKGIAKQTPFSGLGLIPIYWSNVRCRGDEENILLCEKDIWQGGVCPQKMAAAVTCSFSHGPTFPIIRLAGGSSVHEGRVELYHAGQWGTVCDDQWDDADAEVICRQLGLSGIAKAWHQAYFGEGSGPVMLDEVRCTGNELSIEQCPKSSWGEHNCGHKEDAGVSCTPLTDGVIRLAGGKGSHEGRLEVYYRGQWGTVCDDGWTELNTYVVCRQLGFKYGKQASANHFEESTGPIWLDDVSCSGKETRFLQCSRRQWGRHDCSHREDVSIACYPGGEGHRLSLGFPVRLMDGENKKEGRVEVFINGQWGTICDDGWTDKDAAVICRQLGYKGPARARTMAYFGEGKGPIHVDNVKCTGNERSLADCIKQDIGRHNCRHSEDAGVICDYFGKKASGNSNKESLSSVCGLRLLHRRQKRIIGGKNSLRGGWPWQVSLRLKSSHGDGRLLCGATLLSSCWVLTAAHCFKRYGNSTRSYAVRVGDYHTLVPEEFEEEIGVQQIVIHREYRPDRSDYDIALVRLQGPEEQCARFSSHVLPACLPLWRERPQKTASNCYITGWGDTGRAYSRTLQQAAIPLLPKRFCEERYKGRFTGRMLCAGNLHEHKRVDSCQGDSGGPLMCERPGESWVVYGVTSWGYGCGVKDSPGVYTKVSAFVPWIKSVTKL
cleavage and activation of latent PDGF-DD by the coexpressed protease (latent PDGF-DD): neither of the two enzymes was able to cleave and activate latent PDGF-DD | cleavage of latent PDGF-CC by the coexpressed protease (latent PDGF-CC): lacked proteolytic activity toward latent PDGF-CC
